Data reported in US20250235504A1, “ENHANCEMENT OF CD47 BLOCKADE WITH TAXANES FOR CD47+ CANCER THERAPY” (Pfizer Inc., priority 2021, published 2025).

What was measured:
human CD47 (human) = human CD47 (human) (UniProt Q08722); experiment: cell-based or functional assay
[1] = tested on: human B cell lymphoma cell line (Toledo); experiment: Macrophage phagocytosis assay with VPD450-labeled Toledo cells (flow cytometry); type: cell-based; conditions: two hours co-culture, FIG. 1
Description: Heparinized whole blood was obtained from normal healthy human donors (Biological Specialty Corporation) and informed consent was obtained from all donors. Peripheral blood mononuclear cells (PBMCs) were isolated over Ficoll-Paque Plus density gradient (GE Healthcare) and CD14+ monocytes were isolated from PBMCs by positive selection using CD14 antibody-coated MicroBead separation (Miltenyi Biotec). Monocytes were differentiated into macrophages by culturing for seven days in X-Vivo-15 media (Lonza) supplemented with M-CSF (PeproTech), at which point paclitaxel was added to the macrophage culture for an additional six days. On the day of the phagocytosis assay, macrophages were co-cultured with violet proliferation dye 450 (VPD450)-labeled human B cell lymphoma cell line (Toledo) in the presence of 1 μM human SIRPαFc (IgV domain of human SIRPα variant 2 fused with IgG1 Fc), 1 μM control Fc [human IgG1 Fc region (hinge-CH2-CH3)] or nothing (no treatment, NT) for two hours. Phagocytosis was assessed as % VPD450+ cells of live, single CD14+CD11b+ macrophages by flow cytometry. Results are shown in FIG. 1 and are duplicates from a single experiment.

UniProt Q08722, sequence (Q08722 19-323): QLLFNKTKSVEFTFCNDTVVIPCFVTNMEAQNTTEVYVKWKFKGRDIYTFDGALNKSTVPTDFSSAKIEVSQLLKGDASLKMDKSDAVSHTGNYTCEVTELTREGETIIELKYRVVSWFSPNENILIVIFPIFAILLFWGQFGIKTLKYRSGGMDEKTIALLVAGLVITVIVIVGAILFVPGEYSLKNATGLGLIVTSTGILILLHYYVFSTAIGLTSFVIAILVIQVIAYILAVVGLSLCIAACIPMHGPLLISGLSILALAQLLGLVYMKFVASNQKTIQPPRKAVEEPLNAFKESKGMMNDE

Q: How did the % phagocytosis (% VPD450+ cells of live, single CD14+CD11b+ macrophages) of Toledo cells, 1 µM SIRPαFc, macrophages cultured in paclitaxel (human CD47 (human)) turn out when “human SIRPαFc (IgV domain of human SIRPα variant 2 fused with IgG1 Fc) (Fc fusion)” was run?
A: 15%

Q: And the % phagocytosis (% VPD450+ cells of live, single CD14+CD11b+ macrophages) of Toledo cells, 1 µM SIRPαFc, macrophages not cultured in paclitaxel (human CD47 (human))?
A: 9%

Q: Which results are given for “SIRPαFc: IgV domain of human SIRPα variant 2 fused with IgG1 Fc”?
A: % phagocytosis (% VPD450+ cells of live, single CD14+CD11b+ macrophages) ([1]; 1 μM SIRPαFc, "no treatment" macrophages (not cultured in paclitaxel)): around 9%; phagocytosis of the VPD450-labeled B cell lymphoma cells (in words) ([1]; 1 μM protein): substantial phagocytosis
